# Assay results reported in patent US5658784, “Nucleic acid encoding transcription factor p300 and uses of p300” (Dana-Farber Cancer Institute, Inc., dated 1997).
# Target: p300 (endogenous human E1A-associated 300 kD protein) (human)
# Assay: co-immunoprecipitation with anti-E1A M73 from 35S labelled infected U-2 OS cells
binder,measurement,value
E1A proteins of adenovirus dl646 (missing amino acids 30-85) (other) MRHIICHGGVITEEMAASLLDQLIEEVLAAPGSPEPPHLSRQPEQPEQRALGPVSMPNLVPEVIDLTCHEAGFPPSDDEDEEGEEFVLDYVEHPGHGCRSCHYHRRNTGDPDIMCSLCYMRTCGMFVYSPVSEPEPEPEPEPEPARPTRRPKMAPAILRRPTSPVSRECNSSTDSCDSGPSNTPPEIHPVVPLCPIKPVAVRVGGRRQAVECIEDLLNEPGQPLDLSCKRPRP,binding result,no binding
